Results: publication PMC3738494, “A Systematic Analysis of Host Factors Reveals a Med23-Interferon-λ Regulatory Axis against Herpes Simplex Virus Type 1 Replication” (PLoS Pathogens, 2013)

Molecular target: T1, Med23, myc-tagged fusion protein expressed in HEK cells (human, UniProt Q9ULK4 1-1368)
T1 sequence (looked up): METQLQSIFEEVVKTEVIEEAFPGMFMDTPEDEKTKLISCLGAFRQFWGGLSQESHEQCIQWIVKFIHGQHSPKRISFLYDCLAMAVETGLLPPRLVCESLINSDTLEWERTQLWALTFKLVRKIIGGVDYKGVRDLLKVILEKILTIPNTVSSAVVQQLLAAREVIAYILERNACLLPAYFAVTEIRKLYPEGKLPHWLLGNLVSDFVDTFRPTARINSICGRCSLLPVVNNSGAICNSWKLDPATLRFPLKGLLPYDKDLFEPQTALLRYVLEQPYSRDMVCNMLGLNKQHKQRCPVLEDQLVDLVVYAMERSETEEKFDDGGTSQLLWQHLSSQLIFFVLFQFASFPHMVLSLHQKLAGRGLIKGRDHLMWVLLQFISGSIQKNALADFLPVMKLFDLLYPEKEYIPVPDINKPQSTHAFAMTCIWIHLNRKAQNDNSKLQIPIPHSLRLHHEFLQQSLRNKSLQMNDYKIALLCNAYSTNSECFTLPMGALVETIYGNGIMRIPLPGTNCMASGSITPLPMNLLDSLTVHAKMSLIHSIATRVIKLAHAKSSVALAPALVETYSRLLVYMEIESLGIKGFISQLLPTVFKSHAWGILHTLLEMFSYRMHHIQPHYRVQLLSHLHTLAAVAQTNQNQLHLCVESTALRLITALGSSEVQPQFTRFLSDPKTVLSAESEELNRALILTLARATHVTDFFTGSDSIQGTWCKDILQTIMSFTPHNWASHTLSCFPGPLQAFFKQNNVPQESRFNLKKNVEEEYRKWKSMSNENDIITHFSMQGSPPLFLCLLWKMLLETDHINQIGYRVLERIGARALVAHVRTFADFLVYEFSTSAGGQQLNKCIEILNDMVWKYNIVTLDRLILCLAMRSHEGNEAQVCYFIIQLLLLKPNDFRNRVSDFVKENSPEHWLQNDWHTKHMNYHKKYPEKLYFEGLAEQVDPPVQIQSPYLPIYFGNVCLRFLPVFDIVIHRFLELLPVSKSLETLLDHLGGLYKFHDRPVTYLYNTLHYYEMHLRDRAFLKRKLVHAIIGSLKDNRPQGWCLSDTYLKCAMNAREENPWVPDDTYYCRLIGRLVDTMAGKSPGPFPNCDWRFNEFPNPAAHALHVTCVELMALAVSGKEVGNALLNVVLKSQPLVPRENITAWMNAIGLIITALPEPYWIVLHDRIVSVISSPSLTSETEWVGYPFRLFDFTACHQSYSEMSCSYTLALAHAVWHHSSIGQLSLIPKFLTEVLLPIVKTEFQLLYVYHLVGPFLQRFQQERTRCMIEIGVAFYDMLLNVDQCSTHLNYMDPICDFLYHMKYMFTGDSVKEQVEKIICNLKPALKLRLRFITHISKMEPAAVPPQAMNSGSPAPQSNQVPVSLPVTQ
Assay: cell-based or functional assay

B1: IRF7, HA-tagged, expressed in HEK cells (natural protein, human, UniProt Q92985 1-503, looked up)
chain: MALAPERAAPRVLFGEWLLGEISSGCYEGLQWLDEARTCFRVPWKHFARKDLSEADARIFKAWAVARGRWPPSSRGGGPPPEAETAERAGWKTNFRCALRSTRRFVMLRDNSGDPADPHKVYALSRELCWREGPGTDQTEAEAPAAVPPPQGGPPGPFLAHTHAGLQAPGPLPAPAGDKGDLLLQAVQQSCLADHLLTASWGADPVPTKAPGEGQEGLPLTGACAGGPGLPAGELYGWAVETTPSPGPQPAALTTGEAAAPESPHQAEPYLSPSPSACTAVQEPSPGALDVTIMYKGRTVLQKVVGHPSCTFLYGPPDPAVRATDPQQVAFPSPAELPDQKQLRYTEELLRHVAPGLHLELRGPQLWARRMGKCKVYWEVGGPPGSASPSTPACLLPRNCDTPIFDFRVFFQELVEFRARQRRGSPRYTIYLGFGQDLSAGRPKEKSLVLVKLEPWLCRVHLEGTQREGVSSLDSSSLSLCLSSANSLYDDIECFLMELEQPA
- IFN-λ1 promoter luciferase reporter in A549 cells, IRF7 co-expressed with Med23 (IRF7 alone ~9-fold over background): ~18 fold
- IFN-λ3 in the supernatant of A549 cells by ELISA, Med23 co-expressed with IRF7 against either alone: > 2 fold
